Laboratory results taken from the supplement of paper PMC12042874.
± gives the uncertainty stated by the source.

Assay: amyloid nucleation score (Sup35N fusion, yeast selection) (log enrichment); library NNK1; higher = more nucleation; inactive = no reads after selection
How it was run: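 Output and input plasmid inserts were sequenced by Illumina after psi-negative yeast carrying Sup35N fused to peptides of 20 random codons had been induced 24 hours with 100 μM copper sulfate and grown 7 days at 30°C on medium lacking adenine and uracil. The nucleation score is the DiMSum log enrichment of output over input reads, centred on the mode score of non-aggregating sequences. Sequences with under 100 input reads were excluded.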

Substance PLVGWSRYSGAIPTSVMFLA has an amyloid nucleation score of 4.21 ± 0.071.

For PLWLCGGFQQWASGCRSVGL, the amyloid nucleation score was -1.06 ± 0.49.

PMAVRLSYCCNRIYVLY gave an amyloid nucleation score of 4.47 ± 0.097.

Substance PMQNSTPLFYSNAWSE has an amyloid nucleation score of -0.096 ± 1.1.

PMTVSNEFAPSILLSRALFW showed an amyloid nucleation score of 3.99 ± 0.14.

PMYLSSVVCFSKRHMPANRG showed an amyloid nucleation score of -0.138 ± 0.52.

With PNMGREYKIGTGHYYEQFFH the amyloid nucleation score was -0.082 ± 0.17.

PNRRCCPMVGFIWLYRVL gave an amyloid nucleation score of 0.836 ± 0.85.

PNVFFFLISMIFSDFLVGSG gave an amyloid nucleation score of 0.192 ± 1.2.

PPETRTPVINRSLSIEFDPK showed an amyloid nucleation score of -0.022 ± 0.68.

Substance PPLAYWVYPMVRTLFEGRVP has an amyloid nucleation score of 0.754 ± 0.45.

PPWPVNSDDPGHYETSSNFS gave an amyloid nucleation score of 1.29 ± 0.73.

In the case of PQSHQKTRTFLFMRSTSSMW, the amyloid nucleation score is reported as -0.847 ± 0.52.

Substance PRGLP has an amyloid nucleation score of 0.694 ± 0.9.

With PRLARMLLHDGAEYDCELSC the amyloid nucleation score was -0.963 ± 1.2.

In the case of PRNQNMT, the amyloid nucleation score is reported as 0.992 ± 1.

With PRRMKT the amyloid nucleation score was 0.15 ± 0.33.

In the case of PRRQETWANEGHGM, the amyloid nucleation score is reported as 0.426 ± 0.93.

Substance PRTNSNMIKCYIFDNAWNQL has an amyloid nucleation score of 6.234 ± 0.055.

Work on PSFMMFKSYTPQDFGMH yielded an amyloid nucleation score of -0.318 ± 0.99.

PSHLRYAAH gave an amyloid nucleation score of -0.038 ± 0.54.

For PSIEEEFSWVPAVFFFTWDM, the amyloid nucleation score was -0.706 ± 1.2.

Substance PSIHTFCTAL has an amyloid nucleation score of 0.318 ± 0.33.

In the case of PSKSVCKPCRWSGSWWGER, the amyloid nucleation score is reported as 0.073 ± 1.6.

PSLVQNGSQSTPVEDYIIEY gave an amyloid nucleation score of -0.618 ± 0.65.

Work on PSSIWNAMFYGYNCMYLLKT yielded an amyloid nucleation score of -0.392 ± 0.34.

Substance PSWWVMEFTWIPQNGGLLSL has an amyloid nucleation score of 6.64 ± 0.082.

PTCLSWGGVMRRDL gave an amyloid nucleation score of 0.341 ± 0.48.

With PTCQGITWMPRQLWLMGGAD the amyloid nucleation score was 0.507 ± 0.6.

For PTFNSAQTRSISYIKTDYLE, the amyloid nucleation score was “inactive”.

PTLMLAGG gave an amyloid nucleation score of -0.33 ± 0.46.

PTMSLIDGIVGKLMDSRVGT showed an amyloid nucleation score of -0.11 ± 0.32.

For PTTEWKVVRT, the amyloid nucleation score was 0.808 ± 0.57.

For PTTYNYSCVGIVSFDFSESI, the amyloid nucleation score was 5.293 ± 0.052.

PVCVIRRGMAFSAFGWVPLE gave an amyloid nucleation score of 0.188 ± 0.7.

In the case of PVFGETGDY, the amyloid nucleation score is reported as -0.393 ± 0.4.

With PVGGHMVRLSSMSNSLAFKV the amyloid nucleation score was -0.563 ± 0.68.

In the case of PVKNRYTHR, the amyloid nucleation score is reported as “inactive”.

PVLRAWYGRLFCRYSWLWQC showed an amyloid nucleation score of 0.274 ± 0.46.

For PVSSLNYLVDT, the amyloid nucleation score was 0.395 ± 0.62.

PWCSKQEGTRMWGMYGAPGG showed an amyloid nucleation score of 0.162 ± 0.62.

Substance PWGTCQQYRYTFWPVSAC has an amyloid nucleation score of -0.412 ± 0.92.

With PWTYQHGQLASWVLGES the amyloid nucleation score was -0.242 ± 0.33.

PYRFSYKVVESSICDNLRRR gave an amyloid nucleation score of -0.094 ± 0.35.

Work on PYRPLSGRHRVLTQYGKLVG yielded an amyloid nucleation score of 0.112 ± 0.81.

Work on PYSQFANLSIYVMDMMRGIR yielded an amyloid nucleation score of 5.562 ± 0.048.

In the case of PYWTVYGELL, the amyloid nucleation score is reported as 0.116 ± 0.97.

Work on QAELYPDQNRGCVGLVVPAD yielded an amyloid nucleation score of -0.544 ± 0.54.

In the case of QAFSNESVTRDLLCG, the amyloid nucleation score is reported as -0.957 ± 0.64.

Work on QATYCGLIIPSGLIYPDYTV yielded an amyloid nucleation score of -0.442 ± 0.54.

QAVGSI showed an amyloid nucleation score of 0.031 ± 0.33.

QCSCSKWLAIRDWDGSSKMK showed an amyloid nucleation score of 0.082 ± 1.6.

Substance QDITPYWIVIGYD has an amyloid nucleation score of -0.367 ± 0.29.

In the case of QDLPAISLFTDVQSKPRTFP, the amyloid nucleation score is reported as 0.631 ± 0.95.

In the case of QDRNVSWLYIGSVTGRRVAG, the amyloid nucleation score is reported as 0.488 ± 0.66.

With QEYRDMILKPFHRWFTMFK the amyloid nucleation score was 0.941 ± 0.44.

QFAHKVYPMSSCLVNVA showed an amyloid nucleation score of -0.678 ± 0.57.

QFIRILDQSKILYLCCFLDT showed an amyloid nucleation score of 5.64 ± 0.061.

QFKKVGPPLVKNLAQVRMRM showed an amyloid nucleation score of -0.033 ± 0.47.

Substance QFMMS has an amyloid nucleation score of 0.052 ± 0.29.

In the case of QFSAIIMSLSLLWSFMCAWE, the amyloid nucleation score is reported as -0.217 ± 0.55.

For QGCIVQGAASEIEANLAQLS, the amyloid nucleation score was 1.08 ± 0.59.

For QGKLFFLVNLYSKPQNSHYG, the amyloid nucleation score was 4.13 ± 0.069.

QGSSSGITQFGMPTYLGIIC showed an amyloid nucleation score of 0.61 ± 0.47.

With QGVGSDVTSIYTV the amyloid nucleation score was -0.884 ± 2.4.

QGWKGSC gave an amyloid nucleation score of -0.385 ± 1.4.

Work on QHEDISPPKLPIVNSAIPFV yielded an amyloid nucleation score of 0.335 ± 0.54.

QHIPGDCFYHCCQFHCAQKE showed an amyloid nucleation score of 0.818 ± 0.77.

Work on QHRVCLHCYKM yielded an amyloid nucleation score of -1.63 ± 2.7.

For QIFLWFGISNKDFLHFVSWS, the amyloid nucleation score was 0.158 ± 0.57.

Work on QIHFFAFRFIGMVYFPRIGD yielded an amyloid nucleation score of 0.318 ± 0.79.

Substance QIIHGCSAGLQLT has an amyloid nucleation score of 0.809 ± 0.47.

In the case of QISVKTMLLSLTFRMFIYWN, the amyloid nucleation score is reported as -0.168 ± 0.38.

In the case of QKCIVLVMLLGWVFGMPVIG, the amyloid nucleation score is reported as 0.129 ± 0.65.

QKTASILLPVRYFWCEKSWM showed an amyloid nucleation score of -0.667 ± 1.5.

For QLDINN, the amyloid nucleation score was 0.197 ± 0.52.

With QLGWYLFGM the amyloid nucleation score was 0.729 ± 0.4.

QLIHMMFYIRFMWDLGHRSL showed an amyloid nucleation score of 0.814 ± 0.36.

Substance QLSYLTFFCFVP has an amyloid nucleation score of 7.183 ± 0.052.

For QLTLSNWLKTSAKA, the amyloid nucleation score was 2.5 ± 0.32.

Substance QLTSVSIFWYPF has an amyloid nucleation score of -1.46 ± 2.4.

QMRSVYVQDTINMALIIHEL showed an amyloid nucleation score of 0.617 ± 0.27.

In the case of QMTKNYEWDSTRIACVGLHR, the amyloid nucleation score is reported as 2.68 ± 0.11.

For QMVGESDECRCSLYSGQWKG, the amyloid nucleation score was -0.186 ± 0.42.

For QNDVSGKLGNKLSSVCSLRR, the amyloid nucleation score was 0.405 ± 0.95.

QNFSRTGGIGIHKIFVGMGE gave an amyloid nucleation score of -1.13 ± 1.4.

QNPNVDERNSTS gave an amyloid nucleation score of 0.69 ± 0.52.
